Source: article doi:10.1101/2020.11.08.373522, “The DEAD-box RNA helicase Ded1 from yeast is associated with the signal recognition particle (SRP), and its enzymatic activity is regulated by SRP21” (bioRxiv, 2020)

B1: Recombinant His-tagged Sec65 (natural protein, S. cerevisiae, UniProt P29478 1-273, looked up)
chain: MPRLEEIDDFNDIDDLDMELAELDPSLRTPIAPKITPKVVRSQDQENPAFLPGTNNNSNSNNNSSNEKEQLSFINPKTGKVERSEAISKKDLEEVKRFQVLYPCYFDINRSHKEGRRVPKELAVENPLAKTMADAVRELGILCIFEGEKCHPQDFGNPGRIRVLFKENGQLIGAATKFKGGKRQLMKAVGEYMKRHPTTIESLREIPYGPDFDNIEFKKIPRVKGFKMNEIVPLHSPFLMGHPMTKSVYETPKITAAEKSFKPPKNKYKVVRR
notes: Sec65 of the yeast signal recognition particle; source: E. coli Rosetta (DE3), pET19b, purified (Ni-NTA)
B2: Recombinant His-tagged SRP14 (natural protein, S. cerevisiae, UniProt P38985 1-146, looked up)
chain: MANTGCLSPGAFLSKVPEFFQTANEKHITVRLTAKRLIEHDPVEGNLEFDSTNHPDYDVSKKASEISVSSRSDREYPLLIRMSYGSHDKKTKCSTVVKASELDQFWQEYSSVFKGGMQNLIKKKKKKSKNGTISKTGKKNKVAKKN
notes: SRP14 of the yeast signal recognition particle; subcloned into the NdeI and XhoI sites of pET22b; source: E. coli Rosetta (DE3), pET22b, purified (Ni-NTA)

Key:
Details in all cases: both partners purified
[1] = target: T1, Recombinant Ded1-His (S. cerevisiae, UniProt P06634 1-604); experiment: co-IP; purified Ded1 (4 µg) with one purified SRP protein (4-6 µg), no RNA, 300 µl 1X PBS with 2 mM MgCl2, 45 min at 30°C; recovered with Ded1-specific IgG cross-linked to protein A-Sepharose beads, 1 h at 18°C; 12% SDS-PAGE, Coomassie blue
T1 construct: Ded1, DEAD-box RNA helicase of budding yeast, wild type, recombinant; also called purified Ded1
T1 sequence (P06634 whole entry): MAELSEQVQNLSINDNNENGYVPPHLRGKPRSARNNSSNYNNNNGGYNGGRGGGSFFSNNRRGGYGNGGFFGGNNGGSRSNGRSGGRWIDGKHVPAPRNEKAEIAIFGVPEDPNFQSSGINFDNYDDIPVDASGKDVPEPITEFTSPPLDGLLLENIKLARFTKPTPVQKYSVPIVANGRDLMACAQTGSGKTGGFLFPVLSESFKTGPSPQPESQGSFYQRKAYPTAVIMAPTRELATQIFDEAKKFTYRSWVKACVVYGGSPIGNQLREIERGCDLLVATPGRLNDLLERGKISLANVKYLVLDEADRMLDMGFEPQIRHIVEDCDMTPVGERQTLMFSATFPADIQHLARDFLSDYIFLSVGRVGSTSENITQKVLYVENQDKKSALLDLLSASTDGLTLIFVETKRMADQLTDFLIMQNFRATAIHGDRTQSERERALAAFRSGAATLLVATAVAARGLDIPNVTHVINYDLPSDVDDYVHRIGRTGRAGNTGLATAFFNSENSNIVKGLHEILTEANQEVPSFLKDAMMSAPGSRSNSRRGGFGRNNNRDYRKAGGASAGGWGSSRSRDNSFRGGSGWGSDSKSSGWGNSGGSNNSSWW

[2] = target: T1, Recombinant Ded1-His; experiment: co-IP; as a3 but purified Ded1 with combinations of purified SRP proteins (SRP21 with SRP14; SRP54 with Sec65; SRP14, SRP21, SRP54 and Sec65 together); recovered with Ded1-specific IgG on protein A-Sepharose beads; SDS-PAGE, Coomassie blue
[3] = target: T2, Recombinant His-tagged SRP21 (S. cerevisiae, UniProt P32342 1-167); experiment: as above
T2 construct: SRP21 of the yeast signal recognition particle; subcloned into the NdeI and XhoI sites of pET22b; source: E. coli Rosetta (DE3), pET22b, purified (Ni-NTA)
T2 sequence (looked up): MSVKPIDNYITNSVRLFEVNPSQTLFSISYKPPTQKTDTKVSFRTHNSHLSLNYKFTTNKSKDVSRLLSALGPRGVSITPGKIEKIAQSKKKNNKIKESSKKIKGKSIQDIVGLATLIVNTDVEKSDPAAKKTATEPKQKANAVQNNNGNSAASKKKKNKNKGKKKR

Row | Binder | binding result [1] | binding result [2] | binding result [3]
1 | B1 | binds |  | 
2 | B2 |  | binds | binds
